According to patent publication US10227575B2, “Multi-domain enzymes having cutinase activity, compositions comprising same and uses thereof” (OZYMES, priority 2015, dated 2019):

Columns and labels:
[1] = Protocol: Molar masses of the samples were determined with universal calibration with the refractive index detector and the viscosity detector. The universal calibration curve was based on polystyrene standards [Polymer Laboratories (Amherst, Mass.) and Aldrich (Oakville, ON)] using the molar masses determined by the manufacturer and the intrinsic viscosities measured by the apparatus. The software OmniSEC™ software from Viscotek was used for data collection and calibration. Separation in THF was performed by injecting 100 μL of 1.5-2 mg/mL solutions of standards or samples into thermostatically controlled SuperRes™ columns [35° C.; PAS-102, PAS102.5, PAS-103L, each 300 mm×8 mm; PolyAnalytik (London, ON)]. The flow rate was 1 mL/min.
Alternatively, a thin film was prepared from 1 g of commercial available PCL pellets and used for degradation. The polymer was dissolved in dichloromethane in a 1 L beaker. The solvent was allowed to evaporate overnight and the resulting film dried to constant weight under reduced pressure. Prior to enzymatic treatment the film was cut into pieces (20 mg) of approximately 1.5 cm×1.5 cm and thickness of approximately 0.1 mm. The reaction mixture was monitored by HPLC and SEC as described above.
To quantify this further, pellets of polycaprolactone (PCL) as well as films of PCL were incubated with KrCUT at various enzyme concentrations (1.25 μM, 2.5 μM, and 5 μM representing 4.7, 9.5 and 19 enzyme Units) at 37° C. The degradation of the polymer was followed over time by analyzing aliquots of the reaction mixture by HPLC for the detection of the released monomer (6-hydroxyhexanoic acid) and characterization of the remaining polymer by SEC after lypholization of the sample.

[2] = Degradation of poly(1,3-propylene adipate); settings: 2.5 μM, after 24 hours
[3] = Adsorption assay on PHB granules (Langmuir isotherm); assay type: binding
Protocol: Purified KrCUT of concentrations ranging from 0.16 to 3.2 mg/mL were mixed with 25 mg PHB in 50 mM sodium phosphate (pH 8.0) in a total volume of 1 mL and mixed by gently shaking for 3 h. The PHB polymer was removed by centrifugation and the concentration of protein in the supernatant was determined by the BCA method. The concentration of bound protein at a particular concentration of cutinase was calculated as the difference between a control without added PHB and free cutinase after incubation with PHB.
Adsorption assays were carried out following procedures of Kasuya et al. (1999). Purified KrCUT and KrCUT189 at concentrations ranging from 0.16 to 3.2 mg/mL were added to a suspension of 25 mg PHB in 50 mM sodium phosphate (pH 8.0) in a total volume 1 mL. The mixture was incubated at room temperature with gentle shaking for at least 3 h. The PHB polymer was removed by centrifugation and the concentration of protein in the supernatant was determined by the BCA method. The concentration of bound protein at a particular concentration of cutinase was calculated as the difference between a control without added PHB and free cutinase after incubation with PHB. An isotherm of [Bound](mg/mg PHB) vs [Free] (mM) was generated and binding parameters were determined by non-linear regression using the Langmuir equation:
[formula] where [E]=Ead+[E]e, is the concentration of the protein added; Emax is the maximum amount of protein adsorbed on the polyester granules, and K is the adsorption equilibrium constant of the protein.

[4] = pH optimum in Universal Buffer; assay type: biochemical; settings: pH 5-11, p-nitrophenyl butyrate
Protocol: (§1) Esterase activity was determined by monitoring the formation of pNP at 410 nm from various pNP-esters using a Beckman UV spectrophotometer (model DU 640) (21). Substrates were dissolved in isopropanol and were added to 50 mM sodium phosphate buffer pH 8.0 to give 10% (v/v) total isopropanol concentration in a 1 mL reaction volume. pNP-butyrate was used at a final concentration of 1.2 mM. For pNP-caprylate, myristate and palmitate, the final concentration ranged from 0.1 to 0.5 mM. The reaction (1 mL) was started by adding an appropriate amount of enzyme. One enzyme unit (U) is defined as the amount of enzyme that produced 1 μmol of product (pNP) per min; specific activity is expressed as U/mg protein. A molar extinction coefficient of 15 mM^−1 cm^−1 for pNP is used for calculating enzyme activity.
Universal Buffer solutions were prepared according to Britton and Robinson (Surinenaite et al., 2002), having the selected pH value from 5-11. Activity of KrCUT and KrCUT189 were measured at the indicated pH, using p-nitrophenyl butyrate as substrate as described in Example 1, section 1.6). Curves were obtained by plotting values of activity against pH.

[5] = Substrate range on p-NP esters, KrCUT versus KrCUT189; assay type: biochemical
Protocol: as §1

binding to PHB [3]: no binding
B1: KrCUT189: truncated KrCUT lacking the T/P-rich linker and polymer-binding domain; cutinase catalytic domain, SEQ ID NO: 2 (protein)
chain: ATCSDVDVVFARGTGETPGLGVVGGPFVRSLTGELSDRTVTSHAVDYAASSSQASAGPGATAMSAHVREVAAACPSTRFVLGGYSQGATVTDIALGIRTGTTTGTPVPAELAGRVAAVVVFGNPLGLSGRTIATASSTYGPKSKDYCNSSDSVCGSAPKTGTGGHLSYASNGSTTDGARFAAGLVRAAG
modifications: Kineococcus radiotolerans; (1)..(189) KrCUT catalytic domain (KrCUT189)
degradation of PCL pellets and PCL films compared with KrCUT [1]: Nearly identical results | adipic acid found in the reaction mixture [2]: 17% | pH optimum [4]: 8 | activity towards pNB-acetate [5]: little activity | activity towards pNP-myristate compared to KrCUT [5]: higher | activity with various substrates compared to the full length protein [5]: lower activity | substrate giving the highest activity ([5]; p-NP esters): pNP-myristate
